Results on 4 molecules are retold here after patent US20170088616A1 (Kyowa Kirin, published 2017).

For experiment [1], the target named is T1, Mucin chimeraTIM-3 (human TIM-3 with the mucin domain substituted for mouse TIM-3) (human/mouse chimera).
T1 construct: expressed on HEK293F cells
The experiment can be described thus: flow cytometry, transfected HEK293F cells. In general terms: A flow cytometer gives signals particle by particle.

Experiment [2] deals with T2, human TIM-3 (human, UniProt Q8TDQ0 22-301).
T2 construct: endogenous on Daudi cells in the ADCC test; also called HAVCR2; hTIM-3
The experiment can be described thus: flow cytometry, Alexa-647 labeled antibody on human TIM-3 EoL-1 cells pre-bound with 10 ug/ml unlabeled competitor: anti-DNP (negative control).

The target in experiment [3] is T2, human TIM-3. Nature of the experiment: flow cytometry, Alexa-647 labeled antibody on human TIM-3 EoL-1 cells pre-bound with 10 ug/ml unlabeled competitor: 644.

B1: antibody 8213 (antibody, V domains shown)
VH: QVQLQQPGAELVKPGASVKLSCKASGYTFTSYWMHWVKQRPGQGLEWIGEINPSNGRTNYNEKFKTKATLTVDKSSSTAYMQLSSLTSEDSAVYYCAGGYYLYFDYWGQGTTLTVSS
VL: DILMTQSPSSMSVSLGDTVNITCHASQGIRINIGWLQQKPGKSFKGLIYHGTNLEDGVPSRFSGSGSGPDYSLTISSLESEDFADYYCVQYGQFPWTFGGGTKLEMK
notes: Hybridoma isotype mouse IgG2b; recombinant form has mouse IgG2a constant region and kappa chain, made in HEK293F cells
B1: the binding result in experiment [1] and in experiment [2] was “binds” each time.

B2: antibody 4545 (antibody, V domains shown)
VH: QVQLQESGPGLVKPSETLSLTCTVSGGSFSRGGYYWNWIRQPPGKGLEWIGYIYYSGSTNYNPSLKSRVTISLDTSKNQFSLKLSSVTAADTAVYYCARDHYSSSWTFDYWGQGTLVTVSS
VL: EIVLTQSPATLSLSPGERATLSCRASQSVSSYLAWYQQKPGQAPRLLIYDASNRATGIPARFSGSGSGTDFTLTISSLEPEDFAVYYCQQRSNWPPTFGQGTKLEIK
notes: Hybridoma isotype IgG2; recombinant form has human IgG1 constant region and kappa chain, made in FUT8-/- CHO cells (defucosylated)
As to B2, the binding result in experiment [1] and in experiment [2] was “binds” each time.

B3: antibody 644 (antibody, V domains shown)
VH: QVQLVESGGGLVKPGGSLRLSCAASGFTFSDYYMSWIRQAPGKGLEWVSFISSSGSIIYYADSVKGRFTISRDNAKNSLYLQMNSLRAEDTAVYYCARDGYSSSWYYYGMDVWGQGTTVTVSS
VL: not shown
notes: Hybridoma isotype IgG4; recombinant form has human IgG1 constant region and kappa chain, made in FUT8-/- CHO cells (defucosylated)
As for B3, the binding result in experiment [1] and in experiment [2] was “binds” each time.

B4: antibody 512 (antibody, V domains shown)
VH: QVQLVESGGGVVQPGRSLRLSCAASGFTFNSYGMHWVRQAPGKGLEWVAVIWYDGSNKYYGDSVKGRFTISRDNSKNTLYLQMNSLRAEDTAVYYCAIWFGEMFSEYFQHWGQGTLVTVSS
VL: AIQLTQSPSSLSASVGDRVTITCRASQGISSALAWYQQKPGKAPKLLIYDASSLESGVPSRFSGSGSGTDFTLTISSLQPEDFATYYCQQFNSYPLTFGGGTKVEIKR
notes: Hybridoma isotype IgG1; recombinant form has human IgG1 constant region and kappa chain, made in FUT8-/- CHO cells (defucosylated)
As for B4, the binding result in experiment [1] and in experiment [3] was “binds” each time.
